# From paper PMC5573083, “Structural and Functional Analysis of the Escherichia coli Acid-Sensing Histidine Kinase EvgS” (Journal of Bacteriology, 2017)
# B1: EvgS-Cyt (entire cytoplasmic region of the Escherichia coli histidine kinase EvgS, residues 553 to 1193) (domain or fragment, UniProt P30855 553-1193, looked up)
# chain: WGFYLLRSVRRRKVIQGDLENQISFRKALSDSLPNPTYVVNWQGNVISHNSAFEHYFTADYYKNAMLPLENSDSPFKDVFSNAHEVTAETKENRTIYTQVFEIDNGIEKRCINHWHTLCNLPASDNAVYICGWQDITETRDLINALEVEKNKAIKATVAKSQFLATMSHEIRTPISSIMGFLELLSGSGLSKEQRVEAISLAYATGQSLLGLIGEILDVDKIESGNYQLQPQWVDIPTLVQNTCHSFGAIAASKSIALSCSSTFPEHYLVKIDPQAFKQVLSNLLSNALKFTTEGAVKITTSLGHIDDNHAVIKMTIMDSGSGLSQEEQQQLFKRYSQTSAGRQQTGSGLGLMICKELIKNMQGDLSLESHPGIGTTFTITIPVEISQQVATVEAKAEQPITLPEKLSILIADDHPTNRLLLKRQLNLLGYDVDEATDGVQALHKVSMQHYDLLITDVNMPNMDGFELTRKLREQNSSLPIWGLTANAQANEREKGLSCGMNLCLFKPLTLDVLKTHLSQLHQVAHIAPQYRHLDIEALKNNTANDLQLMQEILMTFQHETHKDLPAAFQALEAGDNRTFHQCIHRIHGAANILNLQKLINISHQLEITPVSDDSKPEILQLLNSVKEHIAELDQEIAVFC
# notes: EvgS sensor histidine kinase, Escherichia coli, cytoplasmic domains comprising amino acid residues 553 to 1193; expected monomer mass printed as 72.3 kDa; Amplified from pBADEvgS and cloned NdeI-HindIII into a modified pET41c in which the GST tag is replaced by a C-terminal His8 tag; By the forward primer a start methionine precedes R553 (ATGCGCTCAGTTCGTCGTCGT); No cleavage of the tag is …
# Biological target: the molecule itself
# Test: AUC; purified protein dialysed against 50 mM Tris-HCl pH 7; OD280 of 1 (printed as 0.1 μM protein); 40,000 rpm, 20°C; 200 scans; analysed with Sedfit; monomer to dimer
protein,measurement,value
B1,stoichiometry N,2
